The target of data set [1] is EGFR ectodomain-Fc (human) (Homo sapiens (Human), UniProt P00533 25-645). Kind of data set: filter; DPBS, 5 mM MgCl2, 25 C, 30 min; 0.1 nM RNA. The settings on record: tags: Fc fusion (R&D Systems); label: 5'-32P.
In a further data set the target is ErbB2 (human) (Homo sapiens (Human), UniProt P04626 23-652). Kind of data set: filter; 10 nM RNA, 100 nM protein, DPBS 5 mM MgCl2, 25 C. The settings on record: label: internal alpha-32P.

Numbering of substitutions follows the chain as printed.

B1: E03 (ssRNA)
RNA: GGCGCUCCGACCUUAGUCUCUGUGCUAGUAUAUCGCACGGAUUUAAUCGCCGUAGAAAAGCAUGUCAAAGCCGGAACCGUGUAGCACAGCAGA
modifications: 2'-F pyrimidines
As usually defined, the Kd is the free concentration of one partner at which half of the binding sites on the other are occupied at equilibrium, for simple one-to-one binding. Low readings indicate higher affinity, high ones lower affinity. In data set [1], B1 showed a Kd of around 2.45 nM. The binding result with ErbB2 (human) is “no binding”.

B2: E07 (ssRNA)
RNA: B1 RNA with U26C, A27G, G28C, U33A, C34U
modifications: 2'-F pyrimidines
Turning to B2, the binding result with ErbB2 (human) is given as “no binding”.

These data come from paper PMC3110755, “Inhibition of Cell Proliferation by an Anti-EGFR Aptamer”.
